# Test results: the DeepSol protein solubility set
# Test: soluble on expression in E. coli; label from the status in PepcDB or PDB records
row,Sequence,soluble on expression in E. coli
1,MKLLQKQQQQGGGDNQDQNKENNHDKKQPQNNPNNNNQGGQQQPQPSKQDNTQKDQQPRQNEMSRESAEKILKAYEQDEEKTREKVEQMRKQRMKQQKGNSTKQW,not soluble
2,MSKPFKLNSAFKPSGDQPEAIRRLEEGLEDGLAHQTLLGVTGSGKTFTIANVIADLQRPTMVLAPNKTLAAQLYGEMKEFFPENAVEYFVSYYDYYQPEAYVPSSDTFIEKDASVNEHIEQMRLSATKAMLERRDVVVVASVSAIYGLGDPDLYLKMMLHLTVGMIIDQRAILRRLAELQYARNDQAFQRGTFRVRGEVIDIFPAESDDIALRVELFDEEVERLSLFDPLTGQIVSTIPRFTIYPKTHYVTPRERIVQAMEEIKEELAARRKVLLENNKLLEEQRLTQRTQFDLEMMNELGYCSGIENYSRFLSGRGPGEPPPTLFDYLPADGLLVVDESHVTIPQIGGMYRGDRARKETLVEYGFRLPSALDNRPLKFEEFEALAPQTIYVSATPGNYELEKSGGDVVDQVVRPTGLLDPIIEVRPVATQVDDLLSEIRQRAAINERVLVTTLTKRMAEDLTEYLEEHGERVRYLHSDIDTVERMEIIRDLRLGEFDVLVGINLLREGLDMPEVSLVAILDADKEGFLRSERSLIQTIGRAARNVNGKAILYGDKITPSMAKAIGETERRREKQQKYNEEHGITPQGLNKKVVDILALGQNIAKTKAKGRGKSRPIVEPDNVPMDMSPKALQQKIHELEGLMMQHAQNLEFEEAAQIRDQLHQLRELFIAAS,soluble
3,MTVEQNVLQQSAAQKHQQTFLNQLREITGINDAQILQQALKDSNGNLELAVAFLTAKNAKTPPQEET,soluble
4,RSGKCVGDVIETVDSEEAMGDLKIVLAAIFARKFAGVNGEVTKEYLEGYKMLNIYITNACNLKCKHCFMLSGKKLENELTLEDWMKVLTSFKENGGEFVTFSGGEPLMFKNFPQIISHAHDLGLKSTVLSNGLLWSGKLIHDLALFIDEIQFSLDGVDEETNSMVRGSGHFEKVVDTIVKFANAGVKT,not soluble
5,MGSDKIHHHHHHMATPPFHYQHMFPLGPDKTEYYLLTKDYVSVSEFEGKPILKIEKEGLTAMANAAFRDVSFLLRRSHNEQVAKILSDPEASDNDKYVALTFLRNAEVSAKGKLPLCQDTGTAIIHGEKGQQVWTGYCDEEALSLGVYKTYTEENLRYSQNAPLTMYDEVNTKCNLPAQIDLEATEGMEYKFLCVTKGGGSANKTYLYQETKAVLNPATLVPFLVEKMKTLGTAACPPYHIAFVIGGTSAEKNLLTVKLASTHYYDELPTTGNEYGRAFRDVELEKQVLEEAYKIGLGAQFGGKYMAHDVRIIRLPRHGASCPIGLGVSCSADRNIKCKINKDGIWIEKMDDKPGELIPAELREAGEGDVVKIDLNQPMADILKELTKYPVATRLSLNGTIIVGRDIAHAKLKERLDRGEDLPQYIKDHPIYYAGPAKTPEGMACGSMGPTTAGRMDPYVDLFQSHGGSMIMLAKGNRSQQVTDACKKYGGFYLGSIGGPAAILAQNNIKSIECVEYPELGMEAIWKIEVEDFPAFILVDDKGNDFFKQLKPRCLGNCK,not soluble
6,MGSDKIHHHHHHMLSVTRYSIKNVRLKPWVKFIWYFETKSNILLNNKLLPTDSIDIILNLSDVMEYKIENQDYTASNMHFNGIRDKHGFIIQHGNIRVIGISFYPFGLYPFLKIPISEFNRQIVDLEAVSQLFAKKLEESLNPIQSVEKIVLYLEEVLLSILEEDLISNKYVKLLNSFIYVNRYSNIKAFCDDTNINIKTLERICLKYTGYTPKILKRIYRFKMASNQLIYNYKDDELFDFIYENEYYDQAHFIKEFKKFSGTSPIKFSGENKTIKENIKYSYL,not soluble
7,TDPGAEELPARIFVALFDYDPLTMSPNPDAAEEELPFKEGQIIKVYGDKDADGFYRGETCARLGLIPCNMVSEIQADDEEMMDQ,soluble
8,SESLRIIFAGTPDFAARHLDALLSSGHNVVGVFTQPDRPAGRGKKLMPSPVKVLAEEKGLPVFQPVSLRPQENQQLVAELQADVMVVVAYGLILPKAVLEMPRLGCINVHGSLLPRWRGAAPIQRSLWAGDAETGVTIMQMDVGLDTGDMLYKLSCPITAEDTSGTLYDKLAELGPQGLITTLKQLADGTAKPEVQDETLVTYAEKLSKEEARIDWSLSAAQLERCIRAFNPWPMSWLEIEGQPVKVWKASVIDTATNAAPGTILEANKQGIQVATGDGILNLLSLQPAGKKAMSAQDLLNSRREWFVPGNRLV,soluble
9,MSASPLQITEKSPEMSQTPPKDENNELEFGIPTKRSRSGRPKKICAFSSFKCYEERDIEFFIHQVSDNQIIWDRRNSLNFDGNLVHATFDKIEICCQFLARKNGENASRLWTELASEYKREKARIEQLPSGIYSEEFEIRFPFMQQMWFLEIEASELKEADSNSLEETIVNFARQKSINDAPSPSSSLSAPIEHLNSSINRLIAVIDKKSEDTTKRQIPAKYSDIVEHLIGFLDKTPRERQMEVKCKIYNFLDTIN,not soluble
10,MTFMKLYFFGDDNNKPKLSEHLIIYILSLLDPKSQSVASLVNKDWSRLVQLTRQYLSMLPVIHRIPLFANLGLDVLKLKLMTGGMTNSTVRLRIKNAPEKWVMRIPGIGSSAFITRRDEAHNAKQAEKLGLNVPIAFFDPEDGLQVTRFIEGVHSLDDKALARKEILHEVASMMRRLHKSPPFDNNTLFFERNEELLDLLKRKPFNFPGEIEFVEQQMKNLKEIFSSYHIQQFPCHNDTTPLNFILSENPEIKGSEKIHQIDWEYSSNNDFIWDLVYFMVEAKLNREQQLILLKAYFNTEELSDSLLAWIEVYKPIIEWWITIWSWTQLANGANAVDLSSYEQLGLERYHNTLSHLKSEDYVKALALIEADSHSLTFTGQRPF,not soluble
11,MGSDKIHHHHHHMKLYAENILLNDGWASKQTITIEQGIITAVDAGKIEGAEIAKGAVIPGMVNCHSHAFQRAFAGFSEQGSEGQDSFWTWRKIMYQFLAQLTELDAKNIAKQLYIEMLKMGYTRVAEFHYLHHDIDGSTYNSSVTTDKSASLATMAQAIFDAAKESGIGLTLLPVLYQHSGFGEQTPSDGQKRFINSTEQFNQLVSDCFTLSEQYSNTNVGIAPHSLRAVDKTSLLSAVKHVRSLDNQAPIHIHISEQQKEVDDCLAHFGQRPVQWLLDNVELDKHWCLIHATHIDEAERKGIIAKEAIAGICPTTEANLGDGIFPTTEFLADKGTIAIGSDSHISVNPIEELRWLEYAQRLIKQQRAILATDEQASVGQNLWQQAAIGGAQSTNSNTGSLAIGKQADLLVLDKDKTKLFASASQQLLDSMIFASQQNPVSDVMVNGVWQIKAQQHVEQEQASDNFANLLVRLSAS,not soluble
12,SNAMSMAYEEYMRQLVVPMRRELTGAGFEELTTAEEVENFMEKAEGTTLVVVNSVCGCAAGLARPAATQAVLQNDKTPDNTVTVFAGQDKEATAKMREYFTGAAPSSPSMALLKGKEVVHFIPRHEIEGHDMEEIMKNLTAAFDAHC,soluble
13,MTDKKTTEKKETETAATFTEELTAVLEEIKEEPVKEKKKGEIVTIVNETDIQIGEREYRIVKNHRDAFDPERLGERFSEVLARYDYIVGDWGYEQLRLRGFFDTSNRRAAPDQRIDTLEDYLYEYCNFGCAYFVIERTGERKEKTTHRRRRHKKNNRSNAFVEEKSAPANKNSKPVIRTRKEENKKTTTPKQPSPKKSGKGFTIRQREELEHHHHHH,soluble
14,MGHHHHHHGGHMSLETKHSNRARSRKGALRGAVLAGALMALVGCQTSPAATTSSNTGGTNMQLQLTQEWDKTFPLSAKVEHRKVTFANRYGITLAADLYLPKNRGGDRLPAIVIGGPFGAVKEQSSGLYAQTMAERGFVTLAFDPSYTGESGGQPRNVASPDINTEDFSAAVDFISLLPEVNRERIGVIGICGWGGMALNAVAVDKRVKAVVTSTMYDMTRVMSKGYNDSVTLEQRTRTLEQLGQQRWKDAESGTPAYQPPYNELKGGEAQFLVDYHDYYMTPRGYHPRAVNSGNAWTMTTPLSFMNMPILTYIKEISPRPILLIHGERAHSRYFSETAYAAAAEPKELLIVPGASHVDLYDRLDRIPFDRIAGFFDEHLEGGS,soluble
15,MSLQSVKVNIPFWLTGSPNVGFEYTLTRQLTVNGEVLWMPYLFKKHEEVFRALQSSVELRYYVNPRNFYTNDSWDGFYIGPYAMYGNFNIGLLKHNDPLQSYRRKGWGVSGGISTGYKFAFNSRWGLDLNIGLGYAHLQYNKYYLGGEYVNFPLERKKTKRWIGPTKFGINLTYNIFREGHHHHHH,not soluble
16,MGSDKIHHHHHHMISQRALEAFRAVMTTGTVSAAAEELNVSQPAVSRLVRDLEEYTQLRLFSRHGGRIVATREAHEFNAEIERSFLGLRVIEQAAREIRQGRRGTVSVAVMPALAQTILPDVMADVRVSHPDFRLELLAMPTQSIVRQVATRQCPLGLTSPTHHANEVDVVKSGSLPYRCVMPDGHPLAAYEIIRLQDLSGMEFINYTDATATGRMLDHRFAHMTTPPVVNARAPISPVIAALVRKGLGVAILDPFTAQDHVNRGGVSRPVQIDEEFHWSFIKPYGEKLSSDLMAVISIFEDLSKNYA,not soluble
17,MPLELWIVFNLFGRKSPRSNIKPARGPGETVREADLRYLQEWVSTHAVVEAFVEPETIVNEMSVVLVDITGEFTRRRIGGPKGIDVISSTLGVPVYDVEETGYPQRMREKIERDRILRKREEQRERREKLQRERGESQ,not soluble
18,MSYNSIRLPQDLPIYYKNFFPVKPFTKWLRYGQNNGDYFNRREFAFILADDVHIRYRSYNDEHAFFKALSSTNPEKLDIGAVYNHEPINNKRHTDYQAVERELVFDIDLTDYDPVRNCCKDATVCPKCWKFMVLAVKILDFQLEDMFDFKARMWVFSGRRGVHCWVGDKKARMLNNYQRSAIATRLNLFKKNGQCEVTEGRAKMTKVPPIVRDAFNVALKDGVFEKMIYDQGWLDKEDFITEYKFMSEVGRDDLRSLSETYKTPQERWNMIRGLFDDDYRKSLSPKDGLLDFKMQGRDRNYLLYFVLQRCYPRLDVNVSTGTNHLLKSPFCIHPKTGNVAVPLNVGKIEEFDVSKCPRIDHVVEELSSLLAERGNDENEDSKNRKFLAYKHGALAPYVENFEKFVSACIS,not soluble
19,EAYLGVMINDLVTKEISDPYRLLTSRAEHRLWLRNDNLQERLIEKSRALGLVEADVYANYLEQQQKKKQLIDYLQTTTVGQIAALKLNFKNTAQTLFDFTKRAEIKLVDLVQLLPKRFDLDVQSLNQIDIDIKYAGYIKKSEKYFKSLNNLSSVKIPLKLNYHKVPNLASEAIVKLSKIRPTDLSVASQVAGINFNDILAIKHFLDNHE,soluble
20,MGSDKIHHHHHHMNNTRSAYEKIIKDLQGVGFSDYEAKTYIALLLTPNATAYEISKEAGIPKANCYSVLEALRKNGAVQAVSENPVKYVAVDPNRYFNQMVELTQLRCEDLKESLKNIGHLPQEDLVWSLNDAAAVGLHIEKMIGSARDTIRIKAADTTLEPHLPSLKKAARRGVKVLIILFGEDVRPFELGKNCKVYLHEGNGIRVGISHKLITVTRDYKEALVAEVGRDAYGSYTENKPIVTLADSLLRHEIYFAEIFSCFGDEIQEKFGPALVKLRESYLPADQADALKVFLETADPARLAGKATAA,not soluble
21,MGSDKIHHHHHHVPPLRLAIVGDIHDQWTLADQQLLLQLQPDLTLFVGDFGNESLALVQAIAAIPLRKAVILGNHDAWYTATRWRRSQCPYDWMRENRFEQQLEALGGLHIGYGRLDFPEWNLSVVGGRPCSAGGSQWQHRRFYRHYYQVGSFPESAQRIADCAIASPCDRVLFLAHCGPSGLGDQPEDPCGKDWSRPGGDFGDPDLAMAIAQVQAQKVVPLVCFGHMHHRLRHRRDRPRRSWHRDTAGTVYLNAAASPRILKAQQTTLHHLLWVELSDSLVTAQQTWWTPAGVLVQSEELPLVPQPA,not soluble
